From article PMC11652653, “SON-1010: an albumin-binding IL-12 fusion protein that improves cytokine half-life, targets tumors, and enhances therapeutic efficacy” (Frontiers in Immunology, 2024)

Biological target: T1, human serum albumin (human, UniProt P02768 25-609)
T1 construct: human serum albumin (HSA); also called HSA; rHSA
Experiment: SPR; HSA bound to the chip, SON-1010 added, then SPARC (ternary complex); pH 6.0
Details: both partners purified

Kd: 10 nM
B1: secreted protein acidic and rich in cysteine (natural protein, UniProt P09486 18-303, looked up)
chain: APQQEALPDETEVVEETVAEVTEVSVGANPVQVEVGEFDDGAEETEEEVVAENPCQNHHCKHGKVCELDENNTPMCVCQDPTSCPAPIGEFEKVCSNDNKTFDSSCHFFATKCTLEGTKKGHKLHLDYIGPCKYIPPCLDSELTEFPLRMRDWLKNVLVTLYERDEDNNLLTEKQKLRVKKIHENEKRLEAGDHPVELLARDFEKNYNMYIFPVHWQFGQLDQHPIDGYLSHTELAPLRAPLIPMEHCTTRFFETCDLDNDKYIALDEWAGCFGIKQKDIDKDLVI
notes: SPARC (secreted protein acidic and rich in cysteine); also called SPARC
